The target of assay [1] is recombinant human CD16a(F) (human) (UniProt P08637). Put plainly: SPR (Biacore T100), antibody immobilized on sensor chip, soluble FcR as analyte, steady state affinity model.
Assay [2] addresses recombinant human CD16a(V) (human) (UniProt P08637). Described as above.
For assay [3], the target named is recombinant human CD16b (human) (UniProt O75015). Described as above.
The target in assay [4] is recombinant human CD32a (human) (UniProt P12318). Described as above.
Assay [5] concerns the target recombinant human CD64 (human) (UniProt P12314). Kind of assay: SPR (Biacore T100), antibody immobilized on sensor chip, soluble CD64 as analyte, 1:1 kinetic binding model.
Another assay concerns the target human FcRn (human) (UniProt P55899). Kind of assay: SPR (Biacore T100), antibody immobilized on sensor chip, soluble FcR as analyte, steady state affinity model.

recombinant human CD16b (human), sequence (O75015 17-200 limits assumed): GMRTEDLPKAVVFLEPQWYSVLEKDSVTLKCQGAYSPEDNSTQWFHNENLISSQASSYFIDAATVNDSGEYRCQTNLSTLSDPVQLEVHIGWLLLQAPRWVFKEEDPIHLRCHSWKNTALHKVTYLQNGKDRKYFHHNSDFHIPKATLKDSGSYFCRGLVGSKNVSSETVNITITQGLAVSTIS
recombinant human CD16a(F) (human), sequence (P08637 17-208 limits assumed): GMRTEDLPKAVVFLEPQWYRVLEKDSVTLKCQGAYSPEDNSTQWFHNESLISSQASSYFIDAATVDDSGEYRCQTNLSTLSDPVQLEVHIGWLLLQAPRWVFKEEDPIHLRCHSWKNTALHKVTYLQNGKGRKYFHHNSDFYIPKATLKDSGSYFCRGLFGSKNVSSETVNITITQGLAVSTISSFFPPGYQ
human FcRn (human), sequence (P55899 24-297 limits assumed, chain 1 of 2): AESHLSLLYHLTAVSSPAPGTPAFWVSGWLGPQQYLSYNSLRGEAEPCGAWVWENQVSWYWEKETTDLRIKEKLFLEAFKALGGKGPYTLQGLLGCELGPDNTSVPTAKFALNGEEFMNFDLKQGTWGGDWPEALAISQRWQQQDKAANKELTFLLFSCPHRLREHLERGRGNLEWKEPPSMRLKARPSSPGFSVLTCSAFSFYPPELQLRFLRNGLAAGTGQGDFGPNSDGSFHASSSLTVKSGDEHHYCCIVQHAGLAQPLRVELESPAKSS
human FcRn (human), sequence (P61769 21-119 limits assumed, chain 2 of 2, further chain): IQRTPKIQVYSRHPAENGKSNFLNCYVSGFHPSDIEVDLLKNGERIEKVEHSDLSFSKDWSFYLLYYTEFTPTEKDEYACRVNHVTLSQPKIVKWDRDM
recombinant human CD32a (human), sequence (P12318 34-217): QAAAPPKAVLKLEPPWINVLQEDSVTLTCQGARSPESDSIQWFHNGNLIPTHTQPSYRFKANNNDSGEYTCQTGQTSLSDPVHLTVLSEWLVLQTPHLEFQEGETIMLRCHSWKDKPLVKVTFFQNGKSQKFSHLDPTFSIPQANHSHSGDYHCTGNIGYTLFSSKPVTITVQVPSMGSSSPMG
recombinant human CD16a(V) (human), sequence (P08637 17-208 F176V limits assumed): as the sequence (P08637 17-208 limits assumed) above, with F160V counted along it
recombinant human CD64 (human), sequence (P12314 16-292 limits assumed): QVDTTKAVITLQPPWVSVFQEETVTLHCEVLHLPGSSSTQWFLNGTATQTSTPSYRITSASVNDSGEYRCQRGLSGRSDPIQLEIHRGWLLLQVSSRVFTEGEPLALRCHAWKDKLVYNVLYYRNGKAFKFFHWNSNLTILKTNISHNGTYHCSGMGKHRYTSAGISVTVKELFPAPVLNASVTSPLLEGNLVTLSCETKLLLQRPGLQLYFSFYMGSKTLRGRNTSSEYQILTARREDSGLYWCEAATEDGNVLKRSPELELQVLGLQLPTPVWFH

For the substance “antibody having wild type human IgG1 domain (from UniProt P01857 1-330)”, the Kd in assay [1] was 962 nM; in assay [2] it was 734 nM; in assay [3], 15000 nM; in assay [4], 2080 nM.
Turning to “human IgG1 antibody having a N297S substitution (from UniProt P01857 1-330)”, the Kd in assay [5] came to 278 nM; with human FcRn (human) it was 712 nM.

The values above are taken from patent US20200023071A1.
